Reference: paper PMC10687025, “Endosomal Arl4A attenuates EGFR degradation by binding to the ESCRT-II component VPS36” (Nature Communications, 2023)

B1: untagged WT (pSG5) [not stated] / VPS36 precipitated with HA beads (Fig. 4c) [not stated] (parent)
chain 1: MGNGLSDQTSILSNLPSFQSFHIVILGLDCAGKTTVLYRLQFNEFVNTVPTKGFNTEKIKVTLGNSKTVTFHFWDVGGQEKLRPLWKSYTRCTDGIVFVVDSVDVERMEEAKTELHKITRISENQGVPVLIVANKQDLRNSLSLSEIEKLLAMGELSSSTPWHLQPTCAIIGDGLKEGLEKLHDMIIKRRKMLRQQKKKR
chain 2: MDRFVWTSGLLEINETLVIQQRGVRIYDGEEKIKFDAGTLLLSTHRLIWRDQKNHECCMAILLSQIVFIEEQAAGIGKSAKIVVHLHPAPPNKEPGPFQSSKNSYIKLSFKEHGQIEFYRRLSEEMTQRRWENMPVSQSLQTNRGPQPGRIRAVGIVGIERKLEEKRKETDKNISEAFEDLSKLMIKAKEMVELSKSIANKIKDKQGDITEDETIRFKSYLLSMGIANPVTRETYGSGTQYHMQLAKQLAGILQVPLEERGGIMSLTEVYCLVNRARGMELLSPEDLVNACKMLEALKLPLRLRVFDSGVMVIELQSHKEEEMVASALETVSEKGSLTSEEFAKLVGMSVLLAKERLLLAEKMGHLCRDDSVEGLRFYPNLFMTQS

Variants of: B1
Assay: co-immunoprecipitation (HA beads) with densitometric quantification
Conditions: with VPS36 precipitated with HA beads (Fig. 4c); HeLa cell lysates; parent: 1; read off a plot

| ratio to parent | Variant |
| --- | --- |
| 1.4 | chain 1 Q79L |
| 2.6 | chain 1 T51N |
